Drawing on a protein production outcome set (Wang et al. 2014), this text covers protein production for 28 sequences.

This series is described as follows: label from the status in PepcDB records.
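Note: failed if final PepcDB status was selected cloned or expressed and not failed if soluble or beyond.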

Consider “SLSSKDKDTVKALWGKIADKAEEIGSDALSRMLAVYPQTKTYFSHWKDLSPGSAPVNKHGKTIMGGIVDAVASIDDLNAGLLALSELHAFTLRVDPANFKILSHCILVLLAVKFPKDFTPEVHISYDKFFSALARALAEKYR”, for which the protein production result is given as “not failed”.
With “SNQLQQLQNPGESPPVHPFVAPLSYLLGTWRGQGEGEYPTIPSFRYGEEIRFSHSGKPVIAYTQKTWKLESGAPMHAESGYFRPRPDGSIEVVIAQSTGLVEVQKGTYNVDEQSIKLKSDLVGNASKVKEISREFELVDGKLSYVVRMSTTTNPLQPHLKAILDKL” the entry was “not failed”; with “SNSHDGSNFSNKFSAHKDVVEDLLRKDTVGLVTFQDFRARREYLERCAVAEAACQNASRRAEELETKKKRVKRANLSRLSFGDSLEDQEENSVEFAKITRFASSKKANGVGFNTSGQDIVKEPDVFSPKEEGFFGKQNRKIGMDPGVDTSFLPDRDREQEERLERERLKQQWLSEQERVKNEEIDIIYSIWDGRGQRKLLSCKKGTTIAKFLSIVQQKVSTLKHCKVEDLMFIKEDMIIPHHLSFYDLISMKARGKNGSLFCFDVHEDIRIRNDASVEKDDSHAAKVVERRWYERNKHIYPASMWEVFDVSKNYGRVQKDFFGN”, “failed”.
On to “SPLPVALQTRLAKRGILKHLEPEPEEEIIAEDYDDDPVDYEATRLEGLPPSWYKVFDPSCGLPYYWNADTDLVSWLSPHDPNSVVTKSAKKLRSSNADAEEKLDRSHDKSDRGHDKSDRSHEKLDRGHDKSDRGHDKSDRDRERGYDKVDRERERDRERDRDRGYDKADREEGKERRHHRREELAPYPKSKKAVSRKDEELDPMDPSSYSDAPRGTWSTGLPKRNEAKTGADTTAAGPLFQQRPYPSPGAVLRANAEASRTKQQD”, for which the protein production entry is listed as “not failed”.
With “SPMPAGRPRFLRSMALSSQTREWLEKGMPTEAEAGVPIRLQERAANTAPQARAEERHTQPADAAAPHARAERGRTLQAPASTSPLYTGAVPRANRIVQQLVEAGADLANIRTMFRNMLRGEEMILSRAEQNVFLQHFPDMLPCGIDRNSELAIALREALRRADSQQAARAPARTPPRSS”, the protein production result is given as “not failed”.
With “SQSLYQALWNSADVLRSKMDANDYKSYLLGMVFYKYLSDKMLFFVAETMEEETESLDEALAVYRKYYEDEETHEDLLAVITDEMSYAIHPDLTFTALVERVNDGSFQLEDLAQGFRDIEQSDELYENLFEDIDLYSKKLGATPQKQNQTVAAVMKELAVLDVAGHAGDMLGDAYEYLIGQFATDSGKKAGEFYTPQPVAKLMTQIAFLGREDKQGFTLYDATMGSGSLLLNAKRYSRQPQTVVYFGQELNTSTYNLARMNMILHGVPIENQFLHNADTLDEDWPTQEPTNFDGVLMNPPYSAKWSASSGFMDDPRFSPFGKLAPKSKADFAFLLHGYYHLKQDNGVMAIVLPHGVLFRGNAEGTIRKALLEEGAIDTVIGLPANIFFNTSIPTTVIILKKNRTNRDVYFIDASKEFDKGKNQNIMTDAHIEKILNAYKSREDIDKFAHLASFEEIVENDYNLNIPRYVDTFEEEEVEPLTEIVAKINQTNATIESQTASLLDMLGQLHGTTPEADEELKAFVKAFKG” the entry was “failed”.
Take “SRKVFVGGLPPDIDEDEITASFRRFGPLVVDWPHKAESKSYFPPKGYAFLLFQEESSVQALIDACLEEDGKLYLCVSSPTIKDKPVQIRPWNLSDSDFVMD”: the protein production result is “not failed”.
As for “SRSRPAGPALLLLLLFLGAAESVRRAQPPRRYTPDWPSLDSRPLPAWFDEAKFGVFIHWGVFSVPAWGSEWFWWHWQGEGRPQYQRFMRDNYPPGFSYADFGPQFTARFFHPEEWADLFQAAGAKYVVLTTKHHEGFTNWPSPVSWNWNSKDVGPHRDLVGELGTALRKRNIRYGLYHSLLEWFHPLYLLDKKNGFKTQHFVSAKTMPELYDLVNSYKPDLIWSDGEWECPDTYWNSTNFLSWLYNDSPVKDEVVVNDRWGQNCSCHHGGYYNCEDKFKPQSLPDHKWEMCTSIDKFSWGYRRDMALSDVTEESEIISELVQTVSLGGNYLLNIGPTKDGLIVPIFQERLLAVGKWLSINGEAIYASKPWRVQWEKNTTSVWYTSKGSAVYAIFLHWPENGVLNLESPITTSTTKITMLGIQGDLKWSTDPDKGLFISLPQLPPSAVPAEFAWTIKLTGVK”, the protein production entry is given as “failed”.
With “SSGGKSAQGPEEGGVCITEALITKRNLTFPEDGELSEKMFHTLDELQTVRLDREGITTIRNLEGLQNLHSLYLQGNKIQQIENLACIPSLRFLSLAGNQIRQVENLLDLPCLQFLDLSENLIETLKLDEFPQSLLILNLSGNSCTNQDGYRELVTEALPLLLDLDGQPVVERWISDEEDEASSDEEFPELSGPFCSERGFLKELEQELSRHREHRQQTALTEHLLRMEMQPTLTDLPLLPGVPMAGDSSPSATPAQGEETVPEAVSSPQASSPTKKPCSLIPRGHQSSFWGRKGARAATAPKASVAEAPSTTKTTAKRSKK” the entry was “not failed”.
For the sequence “SSNQTPYIGSKISLISKLDIRYEGILYTVDTNDSTIALAKVRSFGTEKRPTANPVAARDDVYEYIIFKASDIKDLIVCDTPKMANIGGGLPYDPAIISVSSRSAPASDGAPAASAGSSRAGTPSRNSPLGQIIQNQRPGRGGYQQNFQANRGYNNYRGGFAGGYNNQRGHNNYGVPRVNHREKLKFESDFDFEKANEKFQEVLVDNLEKLNIEDKAEPEVEEKKDAAFYDKKTSFFDNISCESLEKAEGKTGRPDWKKERETNQETFGHNAVRSLNYRRGFGGRGRGGNRGYGGYNNGYQHQHQHRGGYNGGYRQNNGGYRRGGYAPRDNQGNTAAAAEQ”, the protein production entry was “failed”.
As for “SSQQRPARKLPSLLLDPTEETVRRRCRDPINVEGLLPSKIRINLEDNVQYVSMRKALKVKRPRFDVSLVYLTRKFMDLVRSAPGGILDLNKVATKLGVRKRRVYDITNVLDGIDLVEKKSKNHIRWIGSDLSNFGAVPQQKKLQEELSDLSAMEDALDELIKDCAQQLFELTDDKENERLAYVTYQDIHSIQAFHEQIVIAVKAPAETRLDVPAPREDSITVHIRSTNGPIDVYLCEVEQGQTSNKRSEGVGTSSSESTHPEGPEEEENPQQSEELLEVSN”, the protein production entry is “failed”.
As for “SSTFSASDFNSERYSSSRPSYPSDFYKMIDEYHDGERKLLVDVGCGPGTATLQMAQELKPFEQIIGSDLSATMIKTAEVIKEGSPDTYKNVSFKISSSDDFKFLGADSVDKQKIDMITAVECAHWFDFEKFQRSAYANLRKDGTIAIWGYADPIFPDYPEFDDLMIEVPYGKQGLGPYWEQPGRSRLRNMLKDSHLDPELFHDIQVSYFCAEDVRDKVKLHQHTKKPLLIRKQVTLVEFADYVRTWSAYHQWKQDPKNKDKEDVADWFIKESLRRRPELSTNTKIEVVWNTFYKLGKRV”, the protein production entry is recorded as “not failed”.
The result for “STALIQLYSLCEHAFHRHLGSGSDSRQTIERYSSPKVRRLLQTLRCFKPEEVHTQADGLRRMRHQVDQADFNRLSHTLESKCRMVDQMDQPPTETRALVATLEQILHTTEDRQTNRSAARVTPTPTPAHAKPKPSSGANTAQPRTRRRVY” reads “failed”; that for “STPSSKAINEVSTEDSNVTVTAVVLTSGRRSIQYNGEQHVIREGELADETGKISYTAWDGFSGDLQPGQTVQLGNAGVREWDGQPELNLGDSTDP”, “failed”; that for “STQTDKALYNRLVPLVNGVREFSEIQLSRLKKLGIHKTDPSTLTEEEVRKFARLNIDPATITWQ”, “not failed”.
With “SVMCAAIAAGAFAQGQGQGLAGINEATSLMTSYFDPATKLCYAIGAVLGLVGGIKTYGKFSSGDPDTSKTAASWFFACIFLIVAATILRSFF” the entry was “failed”.
With “SWKQAVRPCLRLPNFRFDWTSFNVLSAQKRWVKSFSTAVSIKEDPFWSAPLKKVLENHPETQYAYPDSTTVLECARGLVRDDLSSVLVFENVQDKLRWIGIFSERDIVRKVASQGLPLEKTQLKKAYTTRDRVETITVDKTVQDVVDILVSKDVQNIAVLYQKKHGDAFREDCYGVLTSRDLSTFFLSIPENDRSFFEQQTVKDVLESKGLDRSGDNTVYQIHQSVSVDEAIQKMDDHKVGTLLVTQSGK” the entry was “failed”.
On to “SWNKKNEEKEDFGIIVILWKQVTVKEDGKVPLEPFLTAAKEVLRVVDAFGSGFRIVKNDIAGNIKKLYRANQTVHAETLQELIIAENSPDGLATVALLWLKRAFQFIASFLRRLVVTDKSLEQCVTEAYNCTLRPCHSAVIQKVFWGGVKLAPSRERFYRKLHPDLNIAKAKIEEFLIELHDPLCCIVQFFFQRELEDQCWGDEVYQRKDSSEWLKVSCEQDSV”, for which the protein production result is on record as “not failed”.
Turning to “SYRSTQQITDFTKEILVNGEAVTAFDRQGDLPNVVVTPNFEAGVDQVVDQLAMNDSERDTTAIIGKSLAECEALTKALKARGEQVTLIQTENQRLAPGVIVVPSFLAKGLEFDAVIVWNANQENYQREDERQLLYTICSRAMHELTLVAVGSLSPLLARVNHALYTLNEAK”, the protein production result was “not failed”.
Take “TAPTLAEEVKQQSDGSVIIEGSANLRDLNKLFNWHLPINEVRTFNGLILEHLEKIPIEGTQFRLNQLNITVLEVADNMVKKVKVELIE”: the protein production entry is recorded as “not failed”.
On to “TCIYKLADTVSDEYSLQKIIDFLSSTPQGKQAFQKRPQLGVVDLPKLHQLPTDTLGYVYADQMLQNNLQPLQSHEIDNDYQFFKTHITETHDLWHIVTGADTSILGEIQLEAFYVSQLYASRFWLALLAKNLLKAVIYDIELSTPYMDAISTGWVMAKQAKPLFGLEWNLLWEKPLADVRTSLNIILP”, for which the protein production entry is “failed”.
Turning to “TDRARRVIVLAQEEARGLNHNYIGTEHILLGLIHEGEGVAAKALESMGISLEAVRQEVEEIIGHGSEPPAGHIPFTPRAKKVLELSLREGLQMGHKYIGTEFLLLGLIREGDGVAAQVLVKLGADLPRVRQQVIQLLSGYEGGESPENNNEGEAVGAG”, the protein production result is recorded as “failed”.
Take “TEDNIVELDGREWIMTRRQKTRVATNIILLDIPKRIIEKYAPVRKNGHLLPILSNQKMNAYLKEIADLCNIRKPLSFHMARYREFYKHQIINRLYCMSIKGGNEKETSELLYSTLFCHFKEPLFVDCKDSDFFNNMIAIEEL”: the protein production result was “failed”.
For “TEKTKAVETTDVALAIDTLVQNGLKALDEMRQLNQEQVDYIVAKASVAALDAHGELALHAVEETGRGVFEDKATKNLFACEHVVNNMRHTKTVGVIEEDDVTGLTLIAEPVGVVCGITPTTNPTSTAIFKSLISLKTRNPIIFAFHPSAQESSAHAARIVRDAAIAAGAPENCVQWIEQPSIDATNALMNHDGIATILATGGNAMVKAAYSCGKPALGVGAGNVPAYVEKSANIRQAAHDIVMSKSFDNGMVCASE”, the protein production entry was “not failed”.
The result for “TERMDKVGDALEEVLSKALSQRTITVGVYEAAKLLNVDPDNVVLCLLAADEDDDRDVALQIHFTLIQAFCCENDINILRVSNPGRLAELLLLETDAGPAASEGAEQPPDLHCVLVTNPHSSQWKDPALSQLICFCRESRYMDQWVPVINLPER” reads “failed”; that for “TERVNLWMHDHGVRRPFRPVVADGYKKTINKNHSVNGSAPNFVHACDAAHLLRTVNAARAEGITQFALVHDSFGSLPSHAARFRQIIREEFVRMYEEHDVLTEVLEQAKCDLDEHNDKLSALVDMRADLTGKLNIKEVLNAEYAFAYP”, “failed”.
With “TFVCASAGNHAQGFAFVCRHFGVPGVVFMPVTTPQQKIDKTRMFGAEFITIRLVGDIFDQCYKAAREHVEAIGGVMVPPFDHDDIIEGQATVAAEIAEQLPAGPVADLVVLPVGGGGLAAGVTGYLGDSLSADRFLFCEPEGAPSFRRSLELGGVVTLDQVDNFVDGAAVARIGDLNFAALRRFSPEQVMLLPENAICLTITEMLNVEGVVLEPAGALAITALEALGRDSLEGKIVVAVVSGGNF” the entry was “failed”.
With “TGDASKCLATGPGIASTVKTGEEVGFVVDAKTAGKGKVTCTVLTPDGTEAEADVIENEDGTYDIFYTAAKPGTYVIYVRFGGVDIPNSPFTVMATDGEVTAVEEAPVNACP”, the protein production result is given as “not failed”.
